These results are taken from paper PMC7610652 (Nature structural & molecular biology, 2021).

Test [1] addresses RPABC5, subunit of human RNA polymerase III (human, UniProt P62875 1-67). Put plainly: cryo-EM structure.
The target in test [2] is T1, RPC2, subunit of human RNA polymerase III (human, UniProt Q9NW08 1-1133).
T1 sequence: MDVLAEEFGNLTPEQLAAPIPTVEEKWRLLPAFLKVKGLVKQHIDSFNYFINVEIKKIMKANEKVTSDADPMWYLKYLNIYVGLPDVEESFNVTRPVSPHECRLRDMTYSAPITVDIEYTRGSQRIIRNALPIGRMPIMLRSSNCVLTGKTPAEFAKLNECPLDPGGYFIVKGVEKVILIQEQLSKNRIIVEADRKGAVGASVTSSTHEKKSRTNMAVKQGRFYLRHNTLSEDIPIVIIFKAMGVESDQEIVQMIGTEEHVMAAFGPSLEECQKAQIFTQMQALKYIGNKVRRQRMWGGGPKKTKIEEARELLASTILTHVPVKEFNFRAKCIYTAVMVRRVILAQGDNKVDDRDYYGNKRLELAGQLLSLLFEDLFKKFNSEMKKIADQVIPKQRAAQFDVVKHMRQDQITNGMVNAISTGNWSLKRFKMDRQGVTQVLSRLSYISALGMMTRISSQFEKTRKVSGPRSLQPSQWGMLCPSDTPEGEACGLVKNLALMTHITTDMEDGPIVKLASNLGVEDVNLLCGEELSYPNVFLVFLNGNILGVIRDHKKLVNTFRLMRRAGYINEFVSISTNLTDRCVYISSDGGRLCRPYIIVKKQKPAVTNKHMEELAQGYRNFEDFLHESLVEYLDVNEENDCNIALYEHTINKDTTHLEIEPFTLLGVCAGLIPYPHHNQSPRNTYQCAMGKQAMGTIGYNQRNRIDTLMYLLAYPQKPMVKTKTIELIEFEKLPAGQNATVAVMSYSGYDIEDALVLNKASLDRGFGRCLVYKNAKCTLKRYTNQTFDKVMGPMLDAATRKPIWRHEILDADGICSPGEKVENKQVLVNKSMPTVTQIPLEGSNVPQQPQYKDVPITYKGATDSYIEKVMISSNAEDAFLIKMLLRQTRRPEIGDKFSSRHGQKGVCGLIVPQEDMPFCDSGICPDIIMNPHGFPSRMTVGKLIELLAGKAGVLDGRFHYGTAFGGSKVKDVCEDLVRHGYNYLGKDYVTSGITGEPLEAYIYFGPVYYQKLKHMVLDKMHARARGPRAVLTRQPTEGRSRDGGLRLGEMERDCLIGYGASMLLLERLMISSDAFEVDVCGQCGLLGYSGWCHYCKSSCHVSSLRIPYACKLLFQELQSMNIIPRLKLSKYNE
Kind of test: cryo-EM structure.

B1: RPC5, subunit of the human RNA polymerase III heterodimer (natural protein)
chain: MANEEDDPVVQEIDVYLAKSLAEKLYLFQYPVRPASMTYDDIPHLSAKIKPKQQKVELEMAIDTLNPNYCRSKGEQIALNVDGACADETSTYSSKLMDKQTFCSSQTTSNTSRYAAALYRQGELHLTPLHGILQLRPSFSYLDKADAKHREREAANEAGDSSQDEAEDDVKQITVRFSRPESEQARQRRVQSYEFLQKKHAEEPWVHLHYYGLRDSRSEHERQYLLCPGSSGVENTELVKSPSEYLMMLMPPSQEEEKDKPVAPSNVLSMAQLRTLPLADQIKILMKNVKVMPFANLMSLLGPSIDSVAVLRGIQKVAMLVQGNWVVKSDILYPKDSSSPHSGVPAEVLCRGRDFVMWKFTQSRWVVRKEVATVTKLCAEDVKDFLEHMAVVRINKGWEFILPYDGEFIKKHPDVVQRQHMLWTGIQAKLEKVYNLVKETMPKKPDAQSGPAGLVCGDQRIQVAKTKAQQNHALLERELQRRKEQLRVPAVPPGVRIKEEPVSEEGEEDEEQEAEEEPMDTSPSGLHSKLANGLPLGRAAGTDSFNGHPPQGCASTPVARELKAFVEATFQRQFVLTLSELKRLFNLHLASLPPGHTLFSGISDRMLQDTVLAAGCKQILVPFPPQTAASPDEQKVFALWESGDMSDQHRQVLLEIFSKNYRVRRNMIQSRLTQECGEDLSKQEVDKVLKDCCVSYGGMWYLKGTVQS
As to B1, the binding result in test [1] and in test [2] was “binds” in each case.
